The record followed here is patent US20210063414A1, “METHODS FOR PREVENTING AND/OR TREATING BONE LOSS CONDITIONS BY MODULATING IRISIN” (Dana-Farber Cancer Institute, Inc., priority 2018, published 2021).

What all share (assay): Crosslinking/co-immunoprecipitation/mass spectrometry (TMT quantitative proteomics) to identify irisin receptors
Holding throughout (type): binding

Experiment [1] has as its target T1, MLO-Y4 cell surface proteins (Mus musculus, UniProt Q3U2P1).
T1 construct: endogenous in cells; host or cells: MLO-Y4
T1 sequence (Q3U2P1 1-1090): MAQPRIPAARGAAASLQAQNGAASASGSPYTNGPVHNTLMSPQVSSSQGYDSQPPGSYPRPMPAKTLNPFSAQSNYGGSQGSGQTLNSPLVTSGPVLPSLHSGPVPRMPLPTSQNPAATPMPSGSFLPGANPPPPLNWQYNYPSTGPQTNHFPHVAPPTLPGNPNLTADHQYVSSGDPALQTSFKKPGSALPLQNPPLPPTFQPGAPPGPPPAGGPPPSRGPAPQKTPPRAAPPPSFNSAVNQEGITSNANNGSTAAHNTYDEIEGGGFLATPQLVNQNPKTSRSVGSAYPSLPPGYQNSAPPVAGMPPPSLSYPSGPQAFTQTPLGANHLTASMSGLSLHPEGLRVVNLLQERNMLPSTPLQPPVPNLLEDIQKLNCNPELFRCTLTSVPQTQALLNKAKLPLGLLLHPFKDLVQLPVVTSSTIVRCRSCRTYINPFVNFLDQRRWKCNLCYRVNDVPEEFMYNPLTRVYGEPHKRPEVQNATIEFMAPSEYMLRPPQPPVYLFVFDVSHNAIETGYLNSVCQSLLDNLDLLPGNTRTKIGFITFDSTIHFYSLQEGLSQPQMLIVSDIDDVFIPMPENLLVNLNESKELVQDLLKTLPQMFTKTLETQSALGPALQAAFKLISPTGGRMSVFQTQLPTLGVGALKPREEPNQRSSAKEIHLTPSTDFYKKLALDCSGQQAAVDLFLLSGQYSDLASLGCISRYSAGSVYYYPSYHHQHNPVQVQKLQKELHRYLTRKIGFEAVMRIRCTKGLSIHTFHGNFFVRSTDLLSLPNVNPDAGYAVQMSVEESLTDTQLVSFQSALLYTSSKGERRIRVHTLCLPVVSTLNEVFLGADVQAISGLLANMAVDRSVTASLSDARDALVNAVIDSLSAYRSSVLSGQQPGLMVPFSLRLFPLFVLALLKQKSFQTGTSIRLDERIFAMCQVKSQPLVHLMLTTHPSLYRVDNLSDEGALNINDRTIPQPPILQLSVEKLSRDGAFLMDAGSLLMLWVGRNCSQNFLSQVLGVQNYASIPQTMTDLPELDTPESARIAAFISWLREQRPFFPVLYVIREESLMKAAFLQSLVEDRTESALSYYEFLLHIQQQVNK
The settings on record: co-precipitated protein Sec24a (SC24A_MOUSE). Put shortly:
(§1)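 Relative protein abundance came from 6-plex TMT MS3 quantitation on an Orbitrap Fusion Lumos, after in-gel trypsin digestion of Coomassie-stained SDS-PAGE lanes. Input was a Ni-NTA pulldown (250 mM imidazole elution) of lysates from murine MLO-Y4 cells. These cells were treated on ice with His-tagged irisin or adipsin (10 nM, 20 min) in serum-free medium, then crosslinked with 1.5 mM DTSSP for 30 min.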

Experiment [2] addresses T2, MLO-Y4 cell surface proteins (Mus musculus, UniProt P56567).
T2 construct: endogenous in cells; host or cells: MLO-Y4
T2 sequence (P56567 1-97): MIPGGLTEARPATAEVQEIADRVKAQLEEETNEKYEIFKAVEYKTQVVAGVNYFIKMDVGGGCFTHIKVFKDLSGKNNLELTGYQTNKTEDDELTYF
The settings on record: co-precipitated protein Csta (CYTA_MOUSE). Put shortly: as §1

Experiment [3] has as its target T3, MLO-Y4 cell surface proteins (Mus musculus, UniProt C0HKE1).
T3 construct: endogenous in cells; host or cells: MLO-Y4
The settings on record: co-precipitated protein Hist1h2ab (H2A1_MOUSE). Put shortly:
as §1

B1: irisin: secreted cleaved form of FNDC5; recombinant human/mouse irisin with C-terminal his tag produced in HEK293 cells (protein)
chain: DSPSAPVNVTVRHLKANSAVVSWDVLEDEVVIGFAISQQKKDVRMLRFIQEVNTTTRSCALWDLEEDTEYIVHVQAISIQGQSPASEPVLFKTPREAEKMASKNKDEVTMKE
modifications: left off: small tags and cut ends
notes: secreted cleaved form of FNDC5; recombinant human/mouse irisin with C-terminal his tag produced in HEK293 cells
On to B1, for which the results for the TMT signal-to-noise ratio in experiment [1], in experiment [2] and in experiment [3] were 29.3088, 2.132 and 119.978, respectively. Also, the “irisin/adipsin TMT signal-to-noise ratio” value was 0.246 in experiment [1], 0.013 in experiment [2] and 0.438 in experiment [3].
